This passage reports Specific iron uptake Bmax (fmol 55Fe/10^6 cells x 25min), Specific iron uptake Kd (nM transferrin) and Total Iron Uptake Bmax (fmol 55Fe/10^6 cells x 25min) results from patent EP2216341A1, “Transferrin variants and conjugates” (Novozymes Biopharma UK Limited, priority 2009, dated 2010).

The assay has as its target transferrin receptors on human K562 erythroleukemic cells. Put plainly: cell-based or functional assay.
In turn, “Fluorescein conjugated thiotransferrin (S28C, S415A, T613A) (ligand)” returned a Specific iron uptake Bmax (fmol 55Fe/10^6 cells x 25min) of 2430, a Specific iron uptake Kd (nM transferrin) of 154 nM and a Total Iron Uptake Bmax (fmol 55Fe/10^6 cells x 25min) of 3290.

“Fluorescein conjugated thiotransferrin (S415C, T613A) (ligand)” came in with a Specific iron uptake Bmax (fmol 55Fe/10^6 cells x 25min) of 3250, a Specific iron uptake Kd (nM transferrin) of 189 nM and a Total Iron Uptake Bmax (fmol 55Fe/10^6 cells x 25min) of 4160.

In the case of “Human plasma-derived apo-transferrin (Calbiochem 616419) (from UniProt P02787 20-698) (ligand)”, the Total Iron Uptake Bmax (fmol 55Fe/10^6 cells x 25min) worked out at 4250.

The substance “recombinant thiotransferrin (S28C, S415A, T613A) (ligand)” returned a Specific iron uptake Bmax (fmol 55Fe/10^6 cells x 25min) of 3020, a Specific iron uptake Kd (nM transferrin) of 209 nM and a Total Iron Uptake Bmax (fmol 55Fe/10^6 cells x 25min) of 4210.

In the case of “recombinant thiotransferrin (S415C, T613A) (ligand)”, the Specific iron uptake Bmax (fmol 55Fe/10^6 cells x 25min) is 2360, the Specific iron uptake Kd (nM transferrin) amounted to 203 nM and the Total Iron Uptake Bmax (fmol 55Fe/10^6 cells x 25min) came to 3690.

As for “recombinant transferrin (S415A, T613A) (ligand)”, the Specific iron uptake Bmax (fmol 55Fe/10^6 cells x 25min) was found to be 2830, the Specific iron uptake Kd (nM transferrin) is 130 nM and the Total Iron Uptake Bmax (fmol 55Fe/10^6 cells x 25min) stood at 4050.
